Target: TDP-43 (Homo sapiens) (UniProt Q13148)
Details: reanalysis of public CLIP-seq; healthy brain; ratio rises to 2.0 in FTLD

TDP-43 (Homo sapiens), sequence (Q13148 whole entry): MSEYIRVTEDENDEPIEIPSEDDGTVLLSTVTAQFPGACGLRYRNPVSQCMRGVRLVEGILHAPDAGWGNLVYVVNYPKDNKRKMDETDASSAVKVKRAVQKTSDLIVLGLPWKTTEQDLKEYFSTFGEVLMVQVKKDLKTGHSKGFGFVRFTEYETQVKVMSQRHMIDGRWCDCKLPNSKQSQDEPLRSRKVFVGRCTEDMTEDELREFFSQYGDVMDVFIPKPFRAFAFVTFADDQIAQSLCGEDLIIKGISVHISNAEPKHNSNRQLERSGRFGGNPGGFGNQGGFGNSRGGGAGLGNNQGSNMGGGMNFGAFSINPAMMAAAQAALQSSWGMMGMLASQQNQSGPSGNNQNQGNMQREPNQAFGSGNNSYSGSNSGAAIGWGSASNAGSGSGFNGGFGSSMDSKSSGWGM

Sequence: UGUGU [UGUGU pentamer motif]
- binding signal (RefGene/repeat motif enrichment ratio): 1.3
